Measured values published in article doi:10.1101/2024.08.12.607668 (bioRxiv, 2024).
“And” between values parts separate entries of the source, which are not always exact repeats. Equal values may be shown once. Read-outs that look alike come from different tables or passages of the source.

B1: AbrB antirepressor AbbA from B. subtilis 168, His6-tagged (natural protein, UniProt O31697 1-65, looked up)
chain: MRMSLIGERFTEEEQKLLLNILINHEYAIELLSSEINDIETGTKNVDGTTYKKLVTLYDRFRFEN
B2: AbbA from B. subtilis 168 as run on analytical FPLC (natural protein, UniProt O31697 1-65, looked up)
chain: B1 chain
B3: Full-length AbrB as measured by SAXS (natural protein)
chain: MKSTGIVRKVDELGRVVIPIELRRTLGIAEKDALEIYVDDEKIILKKYKPNMTCQVTGEVSDDNLKLAGGKLVLSKEGAEQIISEIQNQLQNLK
B4: AbrB from B. subtilis 168, full-length, His6-tagged (natural protein, UniProt P08874 1-96, looked up)
chain: MFMKSTGIVRKVDELGRVVIPIELRRTLGIAEKDALEIYVDDEKIILKKYKPNMTCQVTGEVSDDNLKLAGGKLVLSKEGAEQIISEIQNQLQNLK
B5: AbbA from B. amyloliquefaciens FZB45 as run on analytical FPLC (natural protein, UniProt A0A9P1JGI2 1-63, looked up)
chain: MSLIGERFTEEEQKLLLNILINHEYAIELLTSEINDIEAGSKSVDGTTYKKLVTLYDRFRNEN

Columns and labels:
[1] = molecular target: AbrB from B. amyloliquefaciens FZB45, full-length, His6-tagged (B. amyloliquefaciens FZB45); assay: SEC
full-length AbrB = assay: SPR
[2] = molecular target: T1, Truncated AbrB, N-terminal DNA-binding domain (AbrBN) from B. subtilis 168, His6-tagged (B. subtilis 168); assay: SPR
T1 sequence (P08874 whole entry, looked up): B4 chain

[3] = molecular target: B4; assay: SPR
[4] = molecular target: B4; assay: native gel or EMSA
SEC = molecular target: the molecule itself; assay: SEC
SAXS = molecular target: the molecule itself; assay: SAXS
[5] = molecular target: AbrB from B. amyloliquefaciens FZB45, full-length, His6-tagged (B. amyloliquefaciens FZB45); assay: SPR
[6] = molecular target: AbrB from B. amyloliquefaciens FZB45, full-length, His6-tagged (B. amyloliquefaciens FZB45); assay: SPR; remark: listed apart in the source
[7] = molecular target: AbrB from B. amyloliquefaciens FZB45, full-length, His6-tagged (B. amyloliquefaciens FZB45); assay: native gel or EMSA
[8] = molecular target: AbrB from B. amyloliquefaciens FZB45, full-length, His6-tagged (B. amyloliquefaciens FZB45); assay: SPR; remark: listed apart in the source

Q: How did the stoichiometry N [1] turn out when “AbrB from B. amyloliquefaciens FZB45, full-length, His6-tagged (natural protein)” was run?
A: 4

Q: For AbbA, which ka1 (two-state reaction model, first reaction) (full-length AbrB) is on record?
A: 132000 M⁻¹ s⁻¹ and 158000 M⁻¹ s⁻¹

Q: What about the kd1 (two-state reaction model, first reaction) (full-length AbrB) of the same molecule?
A: 0.0955 s⁻¹ and 0.157 s⁻¹

Q: Which results are given for B1?
A: Kd [2]: 3700 nM; Kd [3]: 448 nM; stoichiometry N [4]: ~2 AbbA dimers per AbrB tetramer

Q: How did the “stoichiometry N” value (SEC) turn out when B2 was run?
A: 2

Q: How did the “stoichiometry N” value (SAXS) turn out when B3 was run?
A: 4

Q: Which “stoichiometry N” value (SEC) does the source give for B4 here?
A: 4

Q: For B5, which KD1 (two-state reaction model, first reaction) [5] is on record?
A: 791 nM

Q: What about the Kd [5] of the same molecule?
A: 68.9 nM

Q: What about the Kd [6] of the same molecule?
A: 31.4 nM

Q: And the stoichiometry N (AbbA dimers per AbrB tetramer) [7]?
A: 2

Q: What about the “stoichiometry N” value (SEC) of the same molecule?
A: 2

Q: What about the Kd [8] of the same molecule?
A: 1140 nM and 1240 nM
